We go through one substance from patent US5780265.

pKi: −log10 of the molar value.

The term pKi denotes the negative decadic logarithm of the Ki, by convention in mol/L.

For experiment [1], the target named is Human Factor XIa (human) (UniProt P03951).
The target in experiment [2] is Human plasma kallikrein (human) (UniProt P03952).
For experiment [3], the target named is tissue factor-Factor VIIa (human) (UniProt P13726).
Experiment [4] deals with Human Factor XIa (human) (UniProt P03951). The source holds these as a separate data set.
For experiment [5] the target is unchanged. The experiment in a line: enzyme inhibition of FXIa, chromogenic substrate, fit to the tight-binding equation (apparent Ki*).

Regarding “APPI, Kunitz protease inhibitor domain of the Alzheimer's amyloid β-protein precursor”, the figures for the fraction of remaining proteolytic activity at 100 nM inhibitor (fraction of uninhibited rate) (with Human Factor XIa (human) [1]; in experiment [2]; in experiment [3]) were 0.03, 0.81 and 0.6, respectively. Also, the fold prolongation of the clotting time of normal human plasma, APTT assay with Human Factor XIa (human) [4] is 2.8 fold. Moreover, in the experiment with Human Factor XIa (human) [5], the pKi is 8.57.
